{"source": "patent US20260231954A1", "about": "“PESTICIDAL ENZYMES FOR USE ON NEMATODES, INSECTS, AND MOLLUSKS” (priority 2023, published 2026)", "type_in_all_cases": "in vivo", "key": {"corn [1]": {"system": "corn", "assay": "Field trial: esterase on MAP/DAP fertilizer, corn yield", "conditions": "2 fl oz/A EstA fermentation on MAP/DAP (72 lb/A Phosphate); base control 12798", "procedure": "Esterase A (EstA) from Bacillus subtilis (SEQ ID NO:254) was produced via fermentation of a recombinantly produced enzyme in Bacillus subtilis. 2 fl oz of fermentation product was applied onto either 72 lb P/A (phosphate equivalent per acre) monoammonium phosphate (MAP) fertilizer or diammonium phosphate (DAP) fertilizer in a concrete mixer, and allowed to mix for 1 minute. A MAP/DAP control treatment without fermentation media was also created. MAP or DAP, alone or with fermentation media was distributed across 4 small replicated plots each prior to planting of corn with 5 replicates of 400 ft2 each at each site (4 site with MAP, 4 sites with DAP, combined in data in Table 52 below)."}, "corn [2]": {"system": "corn", "assay": "Field trial: esterase on DAP fertilizer, corn yield", "conditions": "1, 2, or 3 fl oz fermentation product on 67.5 lb P/A DAP", "procedure": "(§1) Esterase A (EstA) from Bacillus subtilis (SEQ ID NO:254) was produced via fermentation of a recombinantly produced enzyme in Bacillus subtilis. 1, 2, or 3 fl oz of fermentation product was applied onto 67.5 lb P/A (phosphate equivalent per acre) diammonium phosphate (DAP) fertilizer in a concrete mixer, and allowed to mix for 1 minute. A DAP control treatment without fermentation media was also created. DAP, alone or with fermentation media was distributed across 4 small replicated plots each prior to planting of corn with 4 replicates of 400 ft^2 each at each site."}, "corn [3]": {"system": "corn", "assay": "Field trial: esterase on urea with or without NBPT nitrogen stabilizer, corn yield", "conditions": "1, 2, or 3 fl oz fermentation product on 135 lb N/A urea, with or without 64 fl oz/ton NBPT", "procedure": "as §1, with “135” for “67.5”, “N/A (nitrogen” for “P/A (phosphate”, “urea” for “diammonium phosphate (DAP)”, “urea” for “DAP”, “An addition treatment that contained 64 fl oz/ton N-Butyl-thiophosphoric triamide (NBPT) nitrogen stabilizer or 64 fl oz/ton NBPT nitrogen stabilizer with 3 fl oz/A EstA fermentation product was also included in the trial. Urea,” for “DAP,”, “ft2” for “ft^2”"}, "winter wheat [4]": {"system": "winter wheat", "assay": "Field trial: esterase on urea fertilizer, winter wheat yield", "conditions": "1 fl oz or 2 fl oz fermentation product on 15 lb N/A urea", "procedure": "(§2) Esterase A (EstA) from Bacillus subtilis (SEQ ID NO:254) was produced via fermentation of a recombinantly produced enzyme in Bacillus subtilis. 1 fl oz or 2 fl oz of fermentation product was applied onto 15 lb N/A (nitrogen equivalent per acre) urea fertilizer in a concrete mixer and allowed to mix for 1 minute. A urea control treatment without fermentation media was also created. urea, alone or with fermentation media was distributed across 4 small replicated plots prior to planting of winter wheat with 5 replicates of 300 ft^2 each at each site."}, "winter wheat [5]": {"system": "winter wheat", "assay": "Field trial: esterase on MAP fertilizer, winter wheat yield and vigor", "conditions": "1 fl oz/A EstA fermentation on MAP (15 lb/A Phosphate); MAP base control 4124.5", "procedure": "as §2, with “oz” for “oz or 2 fl oz”, “lb P/A (phosphate” for “lb N/A (nitrogen”, “acre) monoammonium phosphate (MAP)” for “acre) urea”, “A MAP” for “A urea”, “created. MAP,” for “created. urea,”"}, "corn [6]": {"system": "corn", "assay": "Field trial: EstA Esterase corn seed treatment, yield", "conditions": "2.5 fl oz/unit on hybrid corn seed; 16 sites", "source_text": "2.5 fl oz/unit of EstA Esterase from recombinant Bacillus subtilis fermentation (SEQ ID NO: 254) was coated onto hybrid corn seeds treated with Fludioxinil, Azoxystrobin, mefonoxam, and thiabendaz fungicides, cyantraniliproleinsecticide, peridium 1006 polymer, and (colorant). A control treatment without esterase enzyme was also created. The seed treated with esterase and control seed was planted in replicated trials distributed across 16 replicated plots with 4 replicates of 80 ft2 each at each site."}}}
{"molecule": "EstA fermentation: Esterase A (EstA) from Bacillus subtilis (SEQ ID NO:254), fermentation product of recombinant Bacillus subtilis (protein, listed as Bacillus subtilis) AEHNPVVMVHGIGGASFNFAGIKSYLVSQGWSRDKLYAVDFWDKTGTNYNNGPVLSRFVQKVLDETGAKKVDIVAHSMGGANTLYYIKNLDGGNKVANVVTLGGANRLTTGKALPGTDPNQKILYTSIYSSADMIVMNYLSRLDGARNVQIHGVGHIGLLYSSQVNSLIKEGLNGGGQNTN", "values": [{"measurement": "Yield (Kg/ha)", "setting": "corn [1]", "result": 13077, "unit": "Kg/ha"}, {"measurement": "yield vs DAP control (in words)", "setting": "corn [2]", "result": "increased the yield"}, {"measurement": "yield vs urea control and NBPT containing treatments (in words)", "setting": "corn [3]", "result": "increased the yield"}, {"measurement": "yield vs urea control (in words)", "setting": "winter wheat [4]", "result": "increased the yield"}, {"measurement": "Yield (Kg/ha)", "setting": "winter wheat [5]", "result": 4224.7, "unit": "Kg/ha"}, {"measurement": "yield vs base seed treatment package (in words)", "setting": "corn [6]", "result": "increased the yield"}]}
